Laboratory results reported in the supplement of paper PMC10567573.
± gives the standard deviation.

Assay: protein stability index of a GFP-peptide fusion (GPS, HEK-293T) (PSI 1-6); higher = more stable
[1] = treatment: DMSO, c terminus: a fixed tail appended
[2] = treatment: MLN4924 1 uM, 8 h, c terminus: a fixed tail appended
[3] = treatment: DMSO, c terminus: native
[4] = treatment: MLN4924 1 uM, 8 h, c terminus: native
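Also: 24-mer peptide tiles fused after GFP, lentivirally expressed, FACS-sorted into six equal bins by GFP/DsRed ratio, decoded by Illumina sequencing, PSI is the read-weighted mean bin number.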

Row | Sequence | protein stability index [1] | protein stability index [2] | protein stability index [3] | protein stability index [4]
1 | VCVIAIGVVQALIVGYAFHFPHLL [TMEM175] | 3.11 ± 0.62 | 3.09 ± 0.4 |  | 
2 | PAAPGAGGGSGSAPGPSRIADYLL [TRIB1] | 4.02 ± 0.68 | 4.14 ± 0.21 |  | 
3 | DAASLRRQIIKLNRRLQLLEEENK [MFF] | 3.35 ± 0.19 | 3.68 ± 0.55 |  | 
4 | VKQKISPYFKSNDVVCKNQDELRN [FAN1] | 3.84 ± 0.24 | 3.64 ± 0.44 |  | 
5 | IPKCSKIVIDFDSINSRPSQKLQ [DCTD] |  |  | 3.14 ± 0.31 | 3.38 ± 0.32
6 | QCPGLGPAPTPTPPGRLGAPYSEA [ZBED3] | 4.35 ± 0.15 | 4.25 ± 0.067 |  | 
7 | WKFPVPVLKTSRSTPLSPAYISLV [KLHL13] | 2.48 ± 0.42 | 2.26 ± 0.1 |  | 
8 | HSQNLAKQQRNEVSFVIHNLPIIA [SEPHS2] | 2.14 ± 0.089 | 2.25 ± 0.22 |  | 
9 | KELRDGGEQDTWAGEGAEALARNL [NFE2L1] | 5.26 ± 0.25 | 5.36 ± 0.27 |  | 
10 | FFPQHPNFCEPQDYRPMNHEAFKD [CDC25B] | 3.81 ± 0.33 | 4.09 ± 0.21 |  | 
11 | EKGRALQIRDWRGGRLENQKPRGL [ZSWIM9] | 4 ± 0.34 | 4.2 ± 0.35 |  | 
12 | HAAHVVCRELGYVEAKSWTASSSY [LOXL2] | 2.31 ± 0.29 | 2.28 ± 0.17 |  | 
13 | LKAEELLLKIHEVSTVSHADADCF [CASP6] | 3.03 ± 0.15 | 3.14 ± 0.28 |  | 
14 | VLRLCCKKLKIFAMPMQDIKMILK [PRAME] | 2.81 ± 0.38 | 2.73 ± 0.52 |  | 
15 | KGSFGKVCIVQKNDTKKMYAMKYM [STK32A] | 2.49 ± 0.41 | 2.41 ± 0.23 |  | 
16 | QARKRQEEREKEAAEQAERSQSSI [SMARCE1] | 5.26 ± 0.71 | 5.702 ± 0.038 |  | 
17 | YDFDTQYAFVGDYSGQITLLKLEQ [WDFY1] | 2.19 ± 0.11 | 2.33 ± 0.27 |  | 
18 | IAKAEETHSSLSQELQARLQTVTR [CCDC89] | 4.25 ± 0.088 | 4.13 ± 0.2 |  | 
19 | ASLLPSARLASPLPREEEIVFPEK [ADAMTS4] | 4.7 ± 0.63 | 4.97 ± 0.46 |  | 
20 | LNGYRLGERVLQVSFKTSKQHKA [ELAVL3] |  |  | 3.16 ± 0.29 | 2.69 ± 0.42
21 | YSVARQFNLTPPICEQAEYHMFQR [KCNAB2] | 2.64 ± 0.23 | 2.93 ± 0.29 |  | 
22 | SGRHILEDSCAELGESKEHMESRM [SDE2] | 4.64 ± 0.35 | 4.48 ± 0.23 |  | 

Row | Sequence | protein stability index [1] | protein stability index [2] | protein stability index [3] | protein stability index [4]
23 | QLAQDDIDGIQAIYGRSQNPVQPI [MMP1] | 3.69 ± 0.1 | 3.9 ± 0.14 |  | 
24 | SKPWHWPINYQGLRFSGVNDTDFR [POMT2] | 2.37 ± 0.17 | 2.52 ± 0.26 |  | 
25 | EQVAQLKQKVMTHVSNGCQLLLGV [JUNB] | 2.33 ± 0.27 | 2.12 ± 0.13 |  | 
26 | AAAYTFLQRNPKHELTAKYLNYYQ [P3H4] | 2.25 ± 0.23 | 2 ± 0.33 |  | 
27 | VSLLENNIYVHDLLTFQQITTVSK [VPS39] | 2.97 ± 0.35 | 2.41 ± 0.49 |  | 
28 | TPAPMSSAWKTVACGGTRDQLFMQ [MYBL2] | 2.75 ± 0.17 | 2.69 ± 0.3 |  | 
29 | LLVQDATPVSNSLLPEKAFSDIPS [GFOD1] | 3.35 ± 0.24 | 3.37 ± 0.22 |  | 
30 | SRKPSLKGNREDSARMSAGLPGPE [PLEKHN1] | 4.85 ± 0.35 | 4.87 ± 0.2 |  | 
31 | SEARLSQRDLSPTAEDAELSDFEE [FCHSD1] | 5.44 ± 0.38 | 5.53 ± 0.39 |  | 
32 | RLLLAESGLSFITFICYVASSASA [CMTM3] | 2.53 ± 0.94 | 2.43 ± 0.77 |  | 
33 | MAFLDKRLQVKEHQHEEIQNVRNH [ATL3] | 3.84 ± 0.069 | 3.98 ± 0.23 |  | 
34 | YFFPVIFSKASDSLQLVFGIELME [MAGEA6] | 3 ± 0.29 | 3.02 ± 0.54 |  | 
35 | APSPGVKEQAIWKHPQPAPAVTPD [PKD2L1] | 5.15 ± 0.1 | 5.07 ± 0.13 |  | 
36 | PPHICWDETHFGKMGSYYINRTFF [POMT2] | 2.1 ± 0.44 | 2.23 ± 0.4 |  | 
37 | AVSAMKCGLLPISPEALSLGEVAY [ADD1] | 2.31 ± 0.3 | 2.41 ± 0.066 |  | 
38 | NDGWTPLHVAAHYGRDSFVRLLLE [ASB7] | 2.45 ± 0.18 | 2.59 ± 0.27 |  | 
39 | LGPELIKESNANPIFMRKDTKMSF [DPCD] | 3.46 ± 0.084 | 3.43 ± 0.2 |  | 
40 | CHLCNYACRRRDALTGHLRTHSVI [IKZF1] | 3.06 ± 0.26 | 3.15 ± 0.4 |  | 
41 | TSLFMTPLDVVKVRLQSQRPSMAS [SLC25A39] | 2.69 ± 0.34 | 3.02 ± 0.19 |  | 
42 | IQLFEELQELLTHDTKDQSPSRAP [HMOX1] | 3.3 ± 0.29 | 3.61 ± 0.45 |  | 
43 | FSVRPGTEATISIREDEVHRLGSP [SCNN1D] | 4.16 ± 0.16 | 4.2 ± 0.12 |  | 
44 | VPDVKEMEKSSFTEYIESPDVENE [TAF7L] | 5.59 ± 0.17 | 5.61 ± 0.23 |  | 

Row | Sequence | protein stability index [1] | protein stability index [2] | protein stability index [3] | protein stability index [4]
45 | HALSGHAKVKPFDPKITCKQECLI [TPH1] | 2.13 ± 0.27 | 2.12 ± 0.19 |  | 
46 | SSELETTSFFDSDEDDSTSRFSSS [DVL3] | 5.4 ± 0.32 | 5.51 ± 0.31 |  | 
47 | QGITMGCWDMYRHDIDCQWVDITD [LOXL2] | 2.4 ± 0.55 | 2.73 ± 0.42 |  | 
48 | RDTFYKEQLERIERKNAEMYKLSS [CHCHD6] | 3.5 ± 0.12 | 3.79 ± 0.43 |  | 
49 | VKMDSSIQPGPFRAVLKYLYTGEL [RHOBTB2] | 2.32 ± 0.96 | 2.02 ± 0.45 |  | 
50 | YQLGEEAMEKFREDEGFLREEERP [KCNA3] | 5.13 ± 0.2 | 5.27 ± 0.24 |  | 
51 | LSDVQNPAISITENVLHFKAQGHG [HACD3] | 4.13 ± 0.19 | 4.28 ± 0.15 |  | 
52 | TRDYAPPSRGHAYRDYGHSRRDES [RBMY1A1] | 4.54 ± 0.4 | 4.61 ± 0.42 |  | 
53 | QQQQAMSFAILRIIRLVRVFRIFK [KCNA4] | 2.71 ± 0.24 | 3.01 ± 0.26 |  | 
54 | TLTWDSGNPEPVSYYIIQHKPKNS [PTPRD] | 2.69 ± 0.12 | 3.05 ± 0.41 |  | 
55 | TIVKARDKLYHPECFMCSDCGLNL [PDLIM4] | 2.19 ± 0.44 | 2.42 ± 0.19 |  | 
56 | TRRSSYEDSSLPSINALLQAEVLS [HNF4A] | 3.13 ± 0.22 | 3.15 ± 0.31 |  | 
57 | NKFASFIDKVRFLEQQNQVLETKW [KRT71] | 2.58 ± 0.42 | 2.49 ± 0.4 |  | 
58 | VCRDSVSRKGELTPLPETGYWRVR [TRIM39] | 2.55 ± 0.1 | 2.71 ± 0.57 |  | 
59 | KDHSSSRPSSPRPQKASPNGSISS [BTBD10] | 5.1 ± 0.42 | 4.71 ± 0.97 |  | 
60 | VMRTKSSEKAANDDHSVRVAREDV [CPXM2] | 5.08 ± 0.54 | 5.16 ± 0.35 |  | 
61 | RAGEQRKRSQSMKSYPSSELRNMC [CLCN6] | 4.29 ± 0.078 | 4.37 ± 0.21 |  | 
62 | ELAFAEDLVLDEEGARAAGLGELG [ESRRA] | 5.24 ± 0.2 | 5.19 ± 0.27 |  | 
63 | VIVMTTRFEEGGRRKCGQYWPLEK [PTPN9] | 2.12 ± 0.75 | 2.47 ± 0.57 |  | 
64 | QVANSAFVERVRKRGFEVVYMTEP [HSP90AB1] | 2.49 ± 0.4 | 2.64 ± 0.24 |  | 
65 | IVGFGLYGSIHGPTDYQVNIQIIE [BTBD1] | 2.63 ± 0.4 | 2.6 ± 0.47 |  | 
